Reference: US20010010923A1, “MODIFIED CARBOXYPEPTIDASE” (priority 1997, published 2001)

Tests used:
Type in all cases: biochemical
[1] = Transamidation of FA-Arg-Ala-OH, Table 6; details: [S] = 2 mM; H-Leu-NH2 375 mM; pH 7.5; [E] 0.1 mg/mL
[2] = Transamidation of Bz-G-A-R-A-R-A-OH, Table 6; details: [S] = 2 mM; H-Leu-NH2 375 mM; pH 7.5; [E] 0.1 mg/mL
[3] = Transpeptidation of Bz-G-A-R-A-R-X-OH at pH 7.5 at 50% substrate consumption, Table 4; design: key to fa: fraction: aminolysis product / sum of all products formed; details: for Pmax (peak product yield) / fa: 375 mM H-Leu-NH2; for fa / t: 50% substrate consumption; for t: 375 mM H-Leu-NH2, 2 mM substrate, [E] 0.1 mg/mL
Protocol: (§1) Transamidation reactions were carried out generally as described in PCT Application WO 95/20039. In general, the method included dissolving the nucleophile (H-Leu-NH2, unless otherwise indicated) in 50 mM HEPES, 5 mM EDTA and adjusting the pH to 7.5, 5 μl of peptide substrate (8 mM Bz-G-A-R-A-R-A-OH, unless otherwise indicated, in methanol) was added to 190 μl nucleophile solution followed by 5 μl enzyme, resulting in a substrate concentration of 0.2 mM.
(§2) During the reaction, 20 μl aliquots were removed from the reaction mixture and added to 50 μl 1% trifluoroacetic acid to quench the reaction. The reactant composition was determined by HPLC using a Waters HPLC equipped with a C-18 Waters Novapac 4μ reverse phase column and various gradients of acetonitrile in 0.1% trifluoroacetic acid. The separation was monitored at 254 nm allowing the direct quantification of the products from the integrated peak areas. The composition of the reaction mixture was determined at least twvice during the reaction, the first when 20-50% (preferably 35%) of the substrate had been consumed in the reaction and the second time when 50-90% (preferably 80%) of the peptide substrate had been consumed.
(§3) The fraction of aminolysis (fa) was expressed as the ratio between the formed aminolysis product and the sum of all products formed. Unconsumed substrate was disregarded in the calculations.
Site specific mutagenesis was performed as described for Example 1 to generate the specific mutants described below. Transamidation reactions were performed as described for Examples 1.

[4] = Transpeptidation of Bz-G-A-R-A-R-X-OH at pH 6.5 at 50% substrate consumption, Table 5; design: key to fa: fa = aminolysis product / sum of all products formed; details: for Pmax (peak product yield) / fa: 750 mM H-Leu-NH2; for fa / t: 50% substrate consumption; for t: 750 mM H-Leu-NH2, 2 mM substrate, [E] 0.1 mg/mL
Protocol: as §1, with “[…],” for “5 mM EDTA and adjusting the pH to 7.5,”
as §2
The fraction of aminolysis (fa) was expressed as the ratio between the formed aminolysis product and the sum of all products formed. Unconsumed substrate was disregarded in the calculations. […]

[5] = Transamidation of Bz-G-A-R-A-R-A-OH, Table 6; details: [S] = 2 mM; H-Leu-NH2 375 mM; pH 7.5; [E] 0.1 mg/mL; remark: listed apart in the source
Protocol: as §1, with “resulting in a substrate concentration of 0.2 mM.” left out
as §2, §3
Site specific mutagenesis was performed as described for Example 1 to generate the specific mutants described below. Transamidation reactions were performed as described in the previous examples.

Molecule	Pmax [1]	fa [1]	fa [2]	Pmax [5]	other results
L178S + M398L: carboxypeptidase Y mutant L178S + M398L (S1 and S1' subsites) (protein, UniProt P00729 112-532, looked up, variant L178S M398L) Carboxypeptidase Y: KIKDPKILGIDPNVTQYTGYLDVEDEDKHFFFWTFESRNDPAKDPVILWLNGGPGCSSLTGLFFELGPSSIGPDLKPIGNPYSWNSNATVIFLDQPVNVGFSYSGSSGVSNTVAAGKDVYNFLELFFDQFPEYVNKGQDFHIAGESYAGHYIPVFASEILSHKDRNFNLTSVLIGNGSTDPLTQYNYYEPMACGEGGEPSVLPSEECSAMEDSLERCLGLIESCYDSQSVWSCVPATIYCNNAQLAPYQRTGRNVYDIRKDCEGGNLCYPTLQDIDDYLNQDYVKEAVGAEVDHYESCNFDINRNFLFAGDWMKPYHTAVTDLLNQDLPILVYAGDKDFICNWLGNKAWTDVLPWKYDEEFASQKVRNWTASITDEVAGEVKSYKHFTYLRVFNGGHLVPFDVPENALSMVNEWIHGGFSL	0.90	.99	0.91		Pmax (peak product yield) ([3]; leaving group A): >0.48; fa ([3]; leaving group A): 0.77; t ([3]; leaving group A): 41 min; fa ([3]; leaving group I): 0.54; t ([3]; leaving group I): 33 min; Pmax (peak product yield) ([3]; leaving group L): >0.39; fa ([3]; leaving group L): 0.39; t ([3]; leaving group L): 1 min; fa ([3]; leaving group M): 0.17; t ([3]; leaving group M): 17 min; fa ([3]; leaving group V): 0.45; t ([3]; leaving group V): 30 min; Pmax (peak product yield) ([4]; leaving group A): 0.48; fa ([4]; leaving group A): 0.92; t ([4]; leaving group A): 53 min; Pmax (peak product yield) ([4]; leaving group L): 0.54; fa ([4]; leaving group L): 0.54; t ([4]; leaving group L): 19 min
N241D + W312F: carboxypeptidase Y mutant N241D + W312F (protein, UniProt P00729 112-532, looked up, variant N241D W312F) Carboxypeptidase Y: KIKDPKILGIDPNVTQYTGYLDVEDEDKHFFFWTFESRNDPAKDPVILWLNGGPGCSSLTGLFFELGPSSIGPDLKPIGNPYSWNSNATVIFLDQPVNVGFSYSGSSGVSNTVAAGKDVYNFLELFFDQFPEYVNKGQDFHIAGESYAGHYIPVFASEILSHKDRNFNLTSVLIGNGLTDPLTQYNYYEPMACGEGGEPSVLPSEECSAMEDSLERCLGLIESCYDSQSVWSCVPATIYCDNAQLAPYQRTGRNVYDIRKDCEGGNLCYPTLQDIDDYLNQDYVKEAVGAEVDHYESCNFDINRNFLFAGDFMKPYHTAVTDLLNQDLPILVYAGDKDFICNWLGNKAWTDVLPWKYDEEFASQKVRNWTASITDEVAGEVKSYKHFTYLRVFNGGHMVPFDVPENALSMVNEWIHGGFSL	0.58	0.70	0.24	0.17	
N241D + W312L: carboxypeptidase Y mutant N241D + W312L (protein, UniProt P00729 112-532, looked up, variant N241D W312L) Carboxypeptidase Y: KIKDPKILGIDPNVTQYTGYLDVEDEDKHFFFWTFESRNDPAKDPVILWLNGGPGCSSLTGLFFELGPSSIGPDLKPIGNPYSWNSNATVIFLDQPVNVGFSYSGSSGVSNTVAAGKDVYNFLELFFDQFPEYVNKGQDFHIAGESYAGHYIPVFASEILSHKDRNFNLTSVLIGNGLTDPLTQYNYYEPMACGEGGEPSVLPSEECSAMEDSLERCLGLIESCYDSQSVWSCVPATIYCDNAQLAPYQRTGRNVYDIRKDCEGGNLCYPTLQDIDDYLNQDYVKEAVGAEVDHYESCNFDINRNFLFAGDLMKPYHTAVTDLLNQDLPILVYAGDKDFICNWLGNKAWTDVLPWKYDEEFASQKVRNWTASITDEVAGEVKSYKHFTYLRVFNGGHMVPFDVPENALSMVNEWIHGGFSL	0.37	0.50	0.05	0.05	
N241D: carboxypeptidase Y mutant, substitution N241D (protein, UniProt P00729 112-532, looked up, variant N241D) Carboxypeptidase Y: KIKDPKILGIDPNVTQYTGYLDVEDEDKHFFFWTFESRNDPAKDPVILWLNGGPGCSSLTGLFFELGPSSIGPDLKPIGNPYSWNSNATVIFLDQPVNVGFSYSGSSGVSNTVAAGKDVYNFLELFFDQFPEYVNKGQDFHIAGESYAGHYIPVFASEILSHKDRNFNLTSVLIGNGLTDPLTQYNYYEPMACGEGGEPSVLPSEECSAMEDSLERCLGLIESCYDSQSVWSCVPATIYCDNAQLAPYQRTGRNVYDIRKDCEGGNLCYPTLQDIDDYLNQDYVKEAVGAEVDHYESCNFDINRNFLFAGDWMKPYHTAVTDLLNQDLPILVYAGDKDFICNWLGNKAWTDVLPWKYDEEFASQKVRNWTASITDEVAGEVKSYKHFTYLRVFNGGHMVPFDVPENALSMVNEWIHGGFSL	0.56	0.85	0.15	0.09	
N241D + W312A: carboxypeptidase Y mutant N241D + W312A (protein, UniProt P00729 112-532, looked up, variant N241D W312A) Carboxypeptidase Y: KIKDPKILGIDPNVTQYTGYLDVEDEDKHFFFWTFESRNDPAKDPVILWLNGGPGCSSLTGLFFELGPSSIGPDLKPIGNPYSWNSNATVIFLDQPVNVGFSYSGSSGVSNTVAAGKDVYNFLELFFDQFPEYVNKGQDFHIAGESYAGHYIPVFASEILSHKDRNFNLTSVLIGNGLTDPLTQYNYYEPMACGEGGEPSVLPSEECSAMEDSLERCLGLIESCYDSQSVWSCVPATIYCDNAQLAPYQRTGRNVYDIRKDCEGGNLCYPTLQDIDDYLNQDYVKEAVGAEVDHYESCNFDINRNFLFAGDAMKPYHTAVTDLLNQDLPILVYAGDKDFICNWLGNKAWTDVLPWKYDEEFASQKVRNWTASITDEVAGEVKSYKHFTYLRVFNGGHMVPFDVPENALSMVNEWIHGGFSL	0.72	0.80	0.28	0.20	
N241D + W312N: carboxypeptidase Y mutant N241D + W312N (protein, UniProt P00729 112-532, looked up, variant N241D W312N) Carboxypeptidase Y: KIKDPKILGIDPNVTQYTGYLDVEDEDKHFFFWTFESRNDPAKDPVILWLNGGPGCSSLTGLFFELGPSSIGPDLKPIGNPYSWNSNATVIFLDQPVNVGFSYSGSSGVSNTVAAGKDVYNFLELFFDQFPEYVNKGQDFHIAGESYAGHYIPVFASEILSHKDRNFNLTSVLIGNGLTDPLTQYNYYEPMACGEGGEPSVLPSEECSAMEDSLERCLGLIESCYDSQSVWSCVPATIYCDNAQLAPYQRTGRNVYDIRKDCEGGNLCYPTLQDIDDYLNQDYVKEAVGAEVDHYESCNFDINRNFLFAGDNMKPYHTAVTDLLNQDLPILVYAGDKDFICNWLGNKAWTDVLPWKYDEEFASQKVRNWTASITDEVAGEVKSYKHFTYLRVFNGGHMVPFDVPENALSMVNEWIHGGFSL	0.58	0.74	0.17	0.13	
